Reference: patent US11583587B2, “Polymer” (VECTURA LIMITED, priority 2016, dated 2023)

What was measured:
[1] = system: trypsin; test: Protein protection against proteolytic enzymes (trypsin, then poly(allyl amine) disassembly); assay type: biochemical, bovine
Description: In order to assess the enzymatic activity of the lysozyme model protein, a turbidimetric enzymatic assay was performed by measuring the decrease in optical density of a suspension of Micrococcus lysodeikticus lyophilized cells, a natural substrate for lysozyme, in PB. Nanocomplexes and also free lysozyme were extracted from the dry powders as previously described, at a protein concentration of […] (as quantified by BCA assay). 10 mg of lyophilised cells were added to 20 mL of PB. 300 μL of this substrate suspension were added to 150 μL of particle solution and the decrease in optical density was measured at λ=460 nm as a function of time for 60 sec. The absorbance decay plots from 0 to 10 sec were fitted to a linear equation and the enzymatic activities were then determined from the slope of the fitted line. Not spray-dried free lysozyme was used in this work as reference (100% enzymatic activity).
Nanocomplexes were recovered from the dry powders as previously described, at a protein concentration of 37 μg mL^−1 (as quantified by BCA assay). 657 μg of trypsin (≥10,000 BAEE units/mg protein) were added to 4 mL of particle solution and the mixture was kept at room temperature for 3 h under gentle stirring. […] Lysozyme activity was then quantified as previously described. […]

[2] = system: complement proteins; test: Complement activation assay (residual haemolytic capacity of normal human serum); details: at the protein concentrations investigated
Description: Polymer-lysozyme nanocomplexes or free lysozyme were kept in contact with normal human serum (NHS) and the residual haemolytic capacity was measured to study the complement activation. NHS was received from healthy volunteers, aliquoted and stored at −80° C. until use. Sheep erythrocytes were sensitised by rabbit anti-sheep erythrocyte antibodies at a final dilution of 1/800 v/v and these sensitised sheep erythrocytes were suspended at a final concentration of 1×10^8 cells mL^−1 in veronal-buffer saline (VBS2+, containing 0.5 mM Mg and 0.15 mM Ca2+). VBS2+ and NHS were mixed with polymer-lysozyme nanocomplexes or free lysozyme at final protein concentration of 1.116 mg mL^−1 so that the final dilution of NHS in the reaction mixture was 1/4 (v/v) in a final volume of 400 μl. […] The supernatant was collected and the optical density was measured at 415 nm with Dynex absorbance microplate reader (Dynex technologies, USA).
Sample without serum was used here as […] (100% complement activation, 0% sensitised sheep erythrocytes lysis) and employed to correct the absorbance values from the samples. […] They can be calculated by a linear fit to a log-log version of the Von Krogh (equation 1). Particularly, in this study, the data was expressed as the percentage of complement activation relative to 100% complement activation observed with our positive control samples.

residual lysozyme activity after trypsin ([1]; trypsin 3 h in PB, then poly(allyl amine) 1 h, % of initial activity): less than 40%
Substance: lysozyme: Model protein; samples named lysozyme contained no polymer (lysozyme 5% w/w)
decrease in enzymatic activity after trypsin ([1]; no polymer added to the dry powder): > 60% | hemolysis of sensitized sheep erythrocytes without serum [2]: did not lead to hemolysis
